Test results: patent US20190248864A1

B1: mouse IDOL (inducible degrader of the LDLR) (enzyme, UniProt Q8BM54 1-445, looked up)
chain: MLCYVTRPDAVLMEVEVEAKANGEDCLNQVCRRLGIIEVDYFGLQFTGSKGESLWLNLRNRISQQMDGLAPYRLKLRVKFFVEPHLILQEQTRHIFFLHIKESLLAGHLQCSPEQAVELSALLAQTKFGDYNQNTAQYSYEDLCEKELSSSTLNSIVAKHKELEGISQASAEYQVLQIVSAMENYGIEWHAVRDSEGQKLLIGVGPEGISICKEDFSPINRIAYPVVQMATQSGKNVYLTVTKESGNSIVLLFKMISTRAASGLYRAITETHAFYRCDTVTSAVMMQYSRDLKGHLASLFLNENINLGKKYVFDIKRTSKEVYDHARRALYNAGVVDLVSRSDQSPPSSPLKSSDSSMSCSSCEGLSCQQTRVLQEKLRKLKEAMLCMACCEEEINSTFCPCGHTVCCESCAAQLQSCPVCRSRVEHVQHVYLPTHTSLLNLTVI

Experiments:
[1] = target: each construct (cells transfected with either wild type or the PCSK9 binding-deficient LDLR mRNAs); test: flow cytometry, half-maximal cell association of BODIPY-LDL on transfected HEK293 cells
[2] = target: wild type mouse LDLR (mouse) (UniProt P35951); test: cell-based or functional assay
[3] = target: mouse LDLR mutant 1 (LDLR_N317A, K832R, C841A) (mouse) (UniProt P35951); test: cell-based or functional assay

Molecule	EC50 [1] [ng/mL]	Average LDLR MCF, HeLa cells, co-transfected with IDOL (with Luciferase: 5773) [2] [MCF]	Average LDLR MCF, Hepa1-6, co-transfected with IDOL (with Luciferase: 5272) [2] [MCF]	LDLR expression as percent of the baseline, HeLa cells (% of the baseline) [2]	LDLR expression as percent of the baseline, Hepa1-6 (% of the baseline) [2]	LDLR expression as percent of the baseline, Hepa1-6 cells given no LDLR mRNA (luciferase row of Table 15) (% of the baseline) [2]	Average LDLR MCF, HeLa cells, co-transfected with IDOL (with Luciferase: 8369) [3] [MCF]	Average LDLR MCF, Hepa1-6, co-transfected with IDOL (with Luciferase: 14080) [3] [MCF]	LDLR expression as percent of the baseline, HeLa cells (% of the baseline) [3]	LDLR expression as percent of the baseline, Hepa1-6 (% of the baseline) [3]
BODIPY-labeled LDL (low density lipoprotein) (from UniProt P04114 28-4563) (ligand)	0.6 to 0.7									
B1		2920	881	50.5	16.7	62.3	7050	8860	84.2	62.9
